Patent publication US5670616

Biological target: FLAG GG 9-mer (SEQ ID NO:20)

completeness of proteolytic cleavage (relative mobility on SDS gels): 100%
Substance: Trypsin (type XI DPCC treated) (enzyme)
